Data as given in patent publication US7056679B2, “Target specific screening and its use for identifying target binders” (Antyra, Inc., priority 2001, dated 2006).

Experiments:
DGI-2 = target: T1, DGI-2 (Homo sapiens, UniProt Q15004); experiment: ELISA analysis of phage on DGI-2 polypeptide (specific binding); conditions: for DGI-2 (OD): binding to DGI-2 polypeptide (specific binding), phage ELISA units read at 405 nm; for DGI-2/LDH (OD): ratio of specific binding to non-specific binding
T1 construct: encompassed the entire DGI-2 open reading frame (ORF); His-tag of vector pIVEX2.3-MCS (inferred from the vector and from the reverse primer lacking a stop codon); made in house; host or cells: cell-free in vitro translation (Rapid Translation System RTS, Roche; E. coli lysate)
T1 sequence (Q15004 1-111): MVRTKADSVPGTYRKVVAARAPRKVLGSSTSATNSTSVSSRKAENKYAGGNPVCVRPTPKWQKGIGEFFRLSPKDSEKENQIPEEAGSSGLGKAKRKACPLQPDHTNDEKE
Method in brief: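 Recombinant DGI-2 from in vitro translation, LDH (non-specific) and controls were coated at 500 ng/well and blocked with 2% milk-PBS. Phage from individual clones bound for 2 hr at room temperature, then anti-M13-HRP with ABTS was read at 405 nm; a clone counted as positive at ≥2-fold over background.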

[1] = tested on: lactate dehydrogenase (LDH); experiment: ELISA analysis of phage on LDH (irrelevant, non-specific target); assay type: binding; conditions: peptide binding to LDH polypeptide (non-specific binding); phage ELISA units read at 405 nm
Method in brief: (§1)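 Phage from picked clones (M13KO7 helper) bound 2 hr at room temperature to wells coated overnight at 4 °C with 500 ng/well anti-ETAG antibody or LDH, milk-blocked. Detection with HRP-anti-M13 (1:3000) and ABTS at 405 nm; positive when A405 ≥2-fold over background.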

E-tag antibody = experiment: ELISA analysis of phage on antibody raised against ETAG (positive control); conditions: peptide binding to E-tag antibody; phage ELISA units read at 405 nm
Method in brief: as §1

| Substance | DGI-2 (OD) (DGI-2) | DGI-2/LDH (OD) (DGI-2) | LDH (OD) [1] [OD] | ETAG (OD) (E-tag antibody) |
| --- | --- | --- | --- | --- |
| SLLCVVCRPVSGGRALGGVP (DGI-2-20F-PP-B42; listed as Escherichia coli) | 2.4 | 2.5 | 1.0 | 21.5 |
| CGGWGAMWEAWVQGLNGAGC (DGI-2-20R-3-D4; listed as Escherichia coli) | 8.7 | 8.1 | 1.1 | 18.9 |
| SIILAGCVWVMPCGQNLGGV (DGI-2-20F-PP-C4; listed as Escherichia coli) | 3.0 | 3.2 | 0.9 | 36.1 |
| VQFAMTLSSRLWQHARHPLTDDAPPTVSFGTRRETLAGKA (DGI-2-40F-3-D3; listed as Escherichia coli) | 0.9 | 1.1 | 0.9 | 0.9 |
| MGADTCMGGKMPFDQMFGAV (DGI-2-20F-PP-E10; listed as Escherichia coli) | 2.0 | 1.7 | 1.2 | 44.6 |
| ACSVGTALVFPQRWWYLGRS (DGI-2-20R-3-D6; listed as Escherichia coli) [DGL-2-20R-3-D6] | 2.2 | 2.1 | 1.1 | 12.9 |
| VSGVPDGSMRAAQLASGYWC (DGI-2-20F-PP-G2; listed as Escherichia coli) | 2.4 | 2.1 | 1.1 | 5.6 |
| QMSRVAFSPGESWRRWVEGV (DGI-2-20R-3-A2; listed as Escherichia coli) | 7.5 | 7.5 | 1.0 | 14.2 |
| QSNVWVLVGVIMQGVWYQRQHYCVYVMLLSDQVSVLLAVA (DGI-2-40F-3-B6; listed as Escherichia coli) | 0.9 | 1.2 | 0.8 | 1.8 |
| WEVGQVEKFSRGVGGWWPTG [DGI-2-20R-3-D3] | 8.3 | 8.3 | 1.0 | 16.8 |
| TFTRDVAGPAVSFVRLHSWN (DGI-2-20F-PP-A9; listed as Escherichia coli) | 2.7 | 2.3 | 1.2 | 40.8 |
| CYLSRLFRSGQGIGQFGHVE (DGI-2-20F-PP-A82; listed as Escherichia coli) | 2.5 | 2.3 | 1.1 | 16.5 |
| DAGIGWVGSMWFPPGCIGAC (DGI-2-20R-4-E82; listed as Escherichia coli) | 3.9 | 3.7 | 1.1 | 19.6 |
| LGPAHPHGRVCRVSSS#S (LGPAHPHGRVCRVSSSS; DGI-2-20F-PP-B9; listed as Escherichia coli) | 1.9 | 2.7 | 0.7 | 5.0 |
| EVFVSVWVFRFRVMPVTPGGT (DGI-2-20F-PP-E6; listed as Escherichia coli) | 3.0 | 2.6 | 1.2 | 4.1 |
| RERWGTAWNLWTEGVVDVRP (DGI-2-20F-3-B5; listed as Escherichia coli) | 6.1 | 6.6 | 0.9 | 16.4 |
| LQIVRPAGMTKMPGQVGYYIG (LQIVRPAGWKMPGQVGYYIG; DGI-2-20R-3-A9; listed as Escherichia coli) | 3.4 | 3.4 | 1.0 | 14.3 |
| LSLEGGWMWDTKGGDGGSAQ (DGI-2-20R-4-F93; listed as Escherichia coli) | 9.0 | 8.4 | 1.1 | 19.5 |
| WFTHVVEKIF [DGI-2-40F-3-A4] | 1.1 | 1.3 | 0.8 | 6.7 |
| GLEPVPFQTDKRIAMGWTREWLVNGYGAAHRRDARMQSGH (DGI-2-40F-3-D6; listed as Escherichia coli) | 2.5 | 2.6 | 1.0 | 11.4 |
| RPVVCLAGLTLAQFGWVFPGWRGWS (DGI-2-20C-3-C1039; listed as Escherichia coli) | 4.7 | 4.7 | 1.0 | 11.8 |
| SWRLWVSGELQGDRRKGLRG (DGI-2-20R-3-B7; listed as Escherichia coli) | 3.1 | 3.0 | 1.0 | 11.7 |
| DSEA*RVWYSGFLRRLGHMC (DSEARVWYSGFLRRLGHMC; DGI-2-20F-PP-F7; listed as Escherichia coli) | 2.1 | 2.1 | 1.0 | 3.3 |
| HPWVTNMLVFQRPPPPGFWLSDTTPRQRNGLGQVERPSVD (DGI-2-40F-3-C7; listed as Escherichia coli) | 1.2 | 1.5 | 0.8 | 8.8 |
| RWSLPAYLCRFVSQASCNSR (DGI-2-20R-3-C12; listed as Escherichia coli) | 1.6 | 1.6 | 1.0 | 14.6 |

Second part, led by results:

| DGI-2 (OD) (DGI-2) | DGI-2/LDH (OD) (DGI-2) | LDH (OD) [1] [OD] | Substance | ETAG (OD) (E-tag antibody) |
| --- | --- | --- | --- | --- |
| 1.0 | 1.3 | 0.8 | GLLFTSSPYQCFWVHCTLTMSPLSVLGDLSSTIGRMRASR (DGI-2-40F-3-C52; listed as Escherichia coli) | 4.6 |
| 12.9 | 11.0 | 1.2 | DGRGWGAMWMRWAEGLGADI (DGI-2-20R-4-G114; listed as Escherichia coli) | 16.5 |
| 1.0 | 1.2 | 0.9 | RSRSSSGASGSMLRVQNHMVLGSWMVRQPMGSMTPFHGHG (DGI-2-40F-3-B5; listed as Escherichia coli) | 9.2 |
| 2.8 | 2.4 | 1.2 | SLFERSARSRYHGSPDCNGS (DGI-2-20F-PP-A3; listed as Escherichia coli) | 12.9 |
| 2.8 | 3.0 | 1.0 | CRNFGVIWGAGWVSPGCEDJ (CRNFGVIWGAGWVSPGCEDI; not fully specified; non-natural residue J; DGI-2-20F-3-A1; listed as Escherichia coli) [DGI-2-20E-3-A1] | 14.3 |
| 6.7 | 6.4 | 1.0 | WGCVFRQWASGSGAGCARRH (DGI-2-20R-3-D9; listed as Escherichia coli) | 19.7 |
| 7.5 | 7.2 | 1.0 | DQRVVGSGWFERLRNWYDRA (DGI-2-20R-4-G99; listed as Escherichia coli) | 14.1 |
| 1.8 | 1.9 | 1.0 | FGSTAYADMLSQFRKFAMNIS (DGI-2-20F-PP-E1; listed as Escherichia coli) | 33.4 |
| 4.8 | 5.1 | 0.9 | VLQRSLWKDWVDGVMHGGGSRGV (DGI-2-20R-3-A7; listed as Escherichia coli) | 13.9 |
| 4.7 | 4.5 | 1.1 | ISGQVWSSWRFPGWGGKLF (ISGQVWSSWRFPGWGGKF; DGI-2-20R-3-D10; listed as Escherichia coli) | 19.6 |
| 2.7 | 2.5 | 1.1 | GSTRLRVTVRFCSETGTPGC (DGI-2-20F-PP-G6; listed as Escherichia coli) | 36.1 |
| 9.6 | 9.4 | 1.0 | WWREWVDGSLRGGGGTVLKD (DGI-2-20R-3-A122; listed as Escherichia coli) | 15.1 |
| 2.1 | 2.6 | 0.8 | RFWSVSYQGGRVMCREWGYCLPI (DGI-2-40F-3-C92; listed as Escherichia coli) | 9.8 |
| 4.7 | 5.7 | 0.8 | RSQVRVVSRERSTPVLIHIRIECLLFSGWCVTSGSDEGVVWG [DGI-2-40F-4-F122] | 8.1 |
